Data published in patent publication US20240398942A1, “USE OF ANTI-CD40 ANTIBODY” (CHIA TAI TIANQING PHARMACEUTICAL GROUP CO., LTD., priority 2021, published 2024).
Values joined by “and” are separate entries in the source; they are usually repeats but may differ in a detail not shown here. Equal entries are not always repeated.

B1: huC1H1-V1: humanized C1H1 anti-CD40 antibody, VH SEQ ID NO: 20 X1=A, VL SEQ ID NO: 24 X1=K X2=F, human IgG2/κ (antibody, V domains shown)
VH: EVQLVESGGGLVKPGGSLRLSCAASGFTFSNYGISWVRQAPGKGLEWVXSISSGGDNTYYPDNVKGRFTISRDNAKNSLYLQMNSLRAEDTAVYYCARAGEKAMDYWGQGTLVTVSS
VL: EIVLTQSPATLSLSPGERATLSCRASQTINNNLHWYQQKPGQAPRLLIXYASQSISGIPARFSGSGSGTDFTLTISSLEPEDFAVYXCQQFSSWPLTFGGGTKVEIK
modifications: not fully specified; human IgG2/kappa constant regions; VH of huC1H1-V1 to huC1H1-V4; VARIANT 49 X can be A or S; VL of huC1H1-V1 to huC1H1-V4; VARIANT 49 X can be K or Y; VARIANT 87 X can be F or Y
B2: huC1H1-V2: humanized C1H1 anti-CD40 antibody, VH SEQ ID NO: 20 X1=S, VL SEQ ID NO: 24 X1=K X2=F, human IgG2/κ (antibody, V domains shown)
VH: B1 VH
VL: B1 VL
modifications: not fully specified; variable positions X1=S; VL X1=K X2=F; IgG2/kappa constant; VH of huC1H1-V1 to huC1H1-V4; VARIANT 49 X can be A or S; VL of huC1H1-V1 to huC1H1-V4; VARIANT 49 X can be K or Y; VARIANT 87 X can be F or Y

Columns and labels:
binding of CD40 to CD40L = binding of CD40 to CD40L (Homo sapiens, UniProt P25942); assay: Ligand blocking competitive ELISA; conditions: in words, FIG. 5
Protocol: The ability of the anti-CD40 antibody to block the binding of CD40 to CD40L was determined by competitive ELISA. Briefly, a human CD40-Fc protein (amino acid residues 21-193 of SEQ ID NO: 30 linked to the N terminus of amino acid residues 99-330 of SEQ ID NO: 28) dissolved in the immobilization buffer (carbonate/bicarbonate buffer) at a concentration of 2 μg/mL was immobilized on a 96-well plate at 100 μL/well and incubated overnight at 4° C. The next day, the plate was washed once with a washing buffer (PBS+0.05% v/v of Tween-20, PBST) before a PBST containing 5% w/v of skim milk was added. The plate was then incubated at 37° C. for 2 h for blocking. The plate was then washed 4 times with the washing buffer.
The anti-CD40 antibody of the present application or the benchmark was serially 5-fold diluted from 200 nM in a PBST containing 2.5% w/v of skim milk, and the serially diluted anti-CD40 antibody or benchmark was added at 100 μL/well to a plate coated with CD40-Fc protein and incubated at 37° C. for 40 min. […] The absorbance of each well was read on a microplate reader using the dual wavelength mode (TMB detection wavelength: 450 nm, reference wavelength: 630 nm). […] Data were analyzed using Graphpad Prism software, and IC50 values were obtained.

[1] = system: CD40 signal transduction in 293T-NF-κB-Luc-CD40 cells; assay: Cell-based reporter assay; set-up: species or system human; conditions: in words, FIGS. 2A-2C and 7
Description: The agonistic activity of the anti-CD40 antibody of the present application was further determined in a CD40 expression reporter cell line 293T-NF-κB-Luc-CD40, which stably expresses full-length human CD40 (uniprot No. P25942-1, SEQ ID NO: 30). According to the instructions of lipofectamine 3000 transfection reagent (Thermo Fisher), a pGL4.32 [luc2P NF-κB-RE Hygro] vector (Promega, GenBank® Accession No. EU581860) and a pCMV-T-P plasmid (with a CD40 coding sequence inserted between the EcoRI and Khal loci) were transfected into 293T cells in sequence to prepare 293T-NF-κB-Luc-CD40 cells.
Briefly, 293T-NF-κB-Luc-CD40 cells at the log phase were resuspended in DMEM medium (Gibco Inc., Cat. No. 10566-016) containing 10% of FBS (Gibco Inc., Cat. No. 10099-141), and seeded on a 384-well plate (Corning, Cat. No. 3707) at 20 μL/well (containing 5×10^3 cells). Then, the anti-CD40 antibody of the present application or the controls (including an in-house prepared anti-CD22 antibody as a negative control) serially 3-fold diluted from 200 nM in the medium was added at 20 μL per well and incubated at 37° C. for 6 h. […] The chemiluminescence values were measured using Tecan Infinit® 200 Pro. Data were analyzed using Graphpad Prism software, and EC50 values were obtained.

[2] = Protein thermal shift assay (GloMelt); assay type: physicochemical; conditions: 25-99 °C melt curve
Protocol: A thermal stability assay was also conducted on humanized antibody huC1H1-V2. Tm (melting temperature) was determined by protein thermal shift assay using the GloMelt™ thermal shift protein stability kit (Biotium, Cat. No. 33022-T). Briefly, the GloMelt™ dye was thawed to room temperature. The vial containing the dye was vortexed and centrifuged. Then, 5 μL of the 200× dye solution was added to 95 μL of PBS to prepare a 10× dye solution. 2 μL of the 10× dye solution and 10 μg of the humanized antibody were added to the reaction system, and PBS was added to bring the total reaction volume to 20 μL. The centrifuge tubes containing the dye and the antibodies were centrifuged briefly and placed in a real-time PCR thermal cycler (Roche, LightCycler 480 II) in which the parameters of the Melt Curve program are shown in Table 4.

[3] = system: mouse colon carcinoma MC38 cells; assay: In vivo anti-tumor efficacy, colon carcinoma MC38 xenograft model; conditions: for Tumor volume on day 0: baseline at grouping; for Tumor volume on day 0 / Tumor volume on day 14: mean ± standard error; for T/C: TRTV/CRTV, day 14 vs solvent; for TGI: day 14
Protocol: The in vivo anti-tumor activity of antibody huC1H1-V2 was further determined in humanized CD40 transgenic mice (also referred to as hCD40 mice). Briefly, 1×10^6 mouse colon carcinoma MC38 cells (Shanghai Lanli Biotech, LTD., CO.) were injected subcutaneously on the right back of hCD40 mice. The tumor volume was measured using an electronic vernier caliper and calculated according to the formula (length×width^2)/2. When the mean tumor volume reached about 100 mm^3, 18 tumor-bearing mice were selected and randomly divided into 3 groups (6 mice per group), with the date of grouping designated as day 0. According to the administration regimen shown in Table 8, the mice were intravenously administered with the solvent (phosphate buffered saline, or PBS) or antibody huC1H1-V2 via tail veins since day 1.

binding of CD40 to CD40L, sequence (P25942 21-193): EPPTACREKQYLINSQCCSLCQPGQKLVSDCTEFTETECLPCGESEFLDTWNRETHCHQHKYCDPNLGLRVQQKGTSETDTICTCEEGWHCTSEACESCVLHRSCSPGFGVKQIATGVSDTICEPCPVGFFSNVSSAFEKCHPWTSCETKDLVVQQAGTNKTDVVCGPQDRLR

Molecule | Blocking of the binding of CD40 to CD40L (binding of CD40 to CD40L) | Agonistic activity (activation of CD40 signal transduction) [1] | Tm (melting temperature) [2] [°C] | Tumor volume on day 0 ([3]; 3 mg/kg i.v. Q2D × 7 doses) [mm^3] | Tumor volume on day 14 ([3]; 3 mg/kg i.v. Q2D × 7 doses) | T/C ([3]; 3 mg/kg i.v. Q2D) [%] | TGI ([3]; 3 mg/kg i.v. Q2D) [%] | Tumor volume on day 0 ([3]; 10 mg/kg i.v. Q2D × 7 doses) [mm^3] | Tumor volume on day 14 ([3]; 10 mg/kg i.v. Q2D × 7 doses) | T/C ([3]; 10 mg/kg i.v. Q2D) [%] | TGI ([3]; 10 mg/kg i.v. Q2D) [%] | Tolerability (weight loss or any symptoms) ([3]; 3 and 10 mg/kg i.v. Q2D × 7 doses, tumor-bearing mice)
B1 | comparable or slightly lower blocking activity relative to BM1 and BM2 | higher than those of BM1 and BM2 |  |  |  |  |  |  |  |  |  | 
B2 | comparable or slightly lower blocking activity relative to BM1 and BM2 | higher than those of BM1 and BM2 | 70 | 111 ± 5 | 1169 mm^3 and 1169 ± 217** mm^3 | 36 | 64 | 113 ± 8 | 1446 mm^3 and 1446 ± 467* mm^3 | 44 | 56 | well tolerated
